The results in this text go back to patent US20220289837A1, “Cystic Fibrosis Transmembrane Conductance Regulator Stabilizing Agents” (VIB VZW, priority 2019, published 2022).

In this assay the target is T1, F508del-CFTR (Homo sapiens, UniProt P13569, DEL508-508).
T1 construct: expressed in transfected cells
Briefly: Forskolin induced organoid swelling (FIS) assay. The assay is classed as cell-based. Particulars: F508del homozygous intestinal organoids, lentiviral Nb, 3 μM VX-809 24 h before, Fsk and 3 μM VX-770, 2 h. The text has this: Intestinal organoids are 3D epithelial structures grown from a single Lgr5+ stem cell (originating from the crypts of the GI-tract) with an internal lumen that recapitulates key features of the intestinal tissue architecture. When differentiated, the organoids form villus and crypt-like structures. CFTR is located at the apical membrane lining the internal lumen and its activation leads to rapid organoid swelling, in direct correlation with the amount of functional CFTR. This model system thus provides a physiologically relevant assay to evaluate the potential of new therapies with high translational value. CF patient-derived organoids expressing F508del-CFTR from two alleles were transduced with lentiviral vectors encoding the sequence of either a stabilizing nanobody (T2a) or a control nanobody. 24 h before FIS assay, corrector 3 μM VX-809 or DMSO was added. Organoids were stimulated by Fsk (0,8 μM) and 3 μM VX-770 just before FIS. […]
Transduction of human intestinal organoids was performed as described previously (Vidovic, Carlon et al. 2016, Ensinck, De Keersmaecker et al. 2020). […] Organoids were stimulated with forskolin (5 μM) and VX-770 (3 μM) or DMSO, and analyzed by confocal live cell microscopy at 37° C. for 120 min (LSM800, Zeiss, Zen Blue). The total organoid area increase relative to t=0 of forskolin treatment was quantified.

T1 sequence (P13569 with tags, fused parts or gaps DEL508-508): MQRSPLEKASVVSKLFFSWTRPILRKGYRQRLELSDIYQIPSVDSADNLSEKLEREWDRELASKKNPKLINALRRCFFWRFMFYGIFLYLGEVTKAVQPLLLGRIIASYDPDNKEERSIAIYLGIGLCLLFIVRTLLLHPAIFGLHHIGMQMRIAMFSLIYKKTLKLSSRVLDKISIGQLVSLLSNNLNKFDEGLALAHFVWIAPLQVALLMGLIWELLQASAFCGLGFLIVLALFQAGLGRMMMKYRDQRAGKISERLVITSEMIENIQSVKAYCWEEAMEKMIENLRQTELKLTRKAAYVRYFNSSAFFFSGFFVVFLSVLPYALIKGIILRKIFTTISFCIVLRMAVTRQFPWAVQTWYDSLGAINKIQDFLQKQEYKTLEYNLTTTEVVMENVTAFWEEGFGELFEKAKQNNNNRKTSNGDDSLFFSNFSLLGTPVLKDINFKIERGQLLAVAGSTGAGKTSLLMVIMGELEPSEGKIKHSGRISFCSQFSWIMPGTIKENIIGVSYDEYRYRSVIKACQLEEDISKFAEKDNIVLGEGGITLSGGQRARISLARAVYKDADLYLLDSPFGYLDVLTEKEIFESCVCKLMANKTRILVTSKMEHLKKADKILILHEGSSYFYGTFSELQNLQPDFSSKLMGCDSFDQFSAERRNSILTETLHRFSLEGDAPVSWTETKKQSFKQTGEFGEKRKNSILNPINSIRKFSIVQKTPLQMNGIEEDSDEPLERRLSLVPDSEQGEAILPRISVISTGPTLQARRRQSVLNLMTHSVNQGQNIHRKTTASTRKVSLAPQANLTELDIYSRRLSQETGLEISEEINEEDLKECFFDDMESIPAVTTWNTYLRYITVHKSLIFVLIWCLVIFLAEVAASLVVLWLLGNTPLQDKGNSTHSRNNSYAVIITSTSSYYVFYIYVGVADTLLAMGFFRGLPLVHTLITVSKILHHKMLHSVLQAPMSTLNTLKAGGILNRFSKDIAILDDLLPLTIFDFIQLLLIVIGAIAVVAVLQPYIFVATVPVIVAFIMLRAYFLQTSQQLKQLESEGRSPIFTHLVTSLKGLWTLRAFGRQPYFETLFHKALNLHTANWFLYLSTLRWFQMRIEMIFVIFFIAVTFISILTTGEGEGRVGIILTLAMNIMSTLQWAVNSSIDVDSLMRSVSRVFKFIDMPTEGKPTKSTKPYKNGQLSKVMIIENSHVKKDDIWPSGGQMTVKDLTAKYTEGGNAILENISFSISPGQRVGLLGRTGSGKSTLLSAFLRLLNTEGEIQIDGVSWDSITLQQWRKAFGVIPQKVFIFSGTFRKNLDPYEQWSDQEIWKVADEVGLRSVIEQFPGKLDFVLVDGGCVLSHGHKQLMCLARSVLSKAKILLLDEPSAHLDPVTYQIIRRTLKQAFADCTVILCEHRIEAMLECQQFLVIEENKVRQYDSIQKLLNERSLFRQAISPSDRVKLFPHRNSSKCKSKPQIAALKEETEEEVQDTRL

B1: T2a: NBD1-specific CFTR-stabilizing nanobody, SEQ ID NO:3, binds epitope 1 (protein)
VHH: QVQLQESGGGLVQAGGSLRLSCAASGSIFRIDAMGWYRQAPGKQRELVAHSTSGGSTDYADSVKGRFTISRDNAKNTVYLQMNSLKPEDTAVYYCNADVRTRWYASNNYWGQGTQVTVSS
modifications: T2a Nanobody amino acid sequence
Turning to B1, the “CFTR response (relative increase in organoid surface area)” value is “significantly increased CFTR functionality over time”.
